Laboratory results reported in the supplement of paper PMC10567573.

B1: FAM46D (parent)
chain: FQEAMTHLQHKLICTRKPEEIRGG
B2: TTC32 (parent)
chain: YSAYIRRCACAASSDESPGSKCSP

Variants of: B1
Assay: protein stability index of a GFP-peptide fusion (GPS, HEK-293T) (PSI 1-6); higher = more stable
Conditions: c terminus: a fixed tail appended
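Further: lentivirally expressed fusions sorted by FACS into six bins by GFP to DsRed ratio, PSI derived from sequencing read proportions per bin multiplied by bin number.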

Variant	protein stability index
FQEAMTHLQHKLICTRKPEEIVGG [R22V]	3.04
FQEAMTHLQHKLICTRKPEEIWGG [R22W]	1.41
FQEAMTHLQHKLICTRKPEEIYGG [R22Y]	1.91
FQEAMTHLQHKLICTRKPEEIRAG [G23A]	2.76
FQEAMTHLQHKLICTRKPEEIRCG [G23C]	2.08
FQEAMTHLQHKLICTRKPEEIRDG [G23D]	3.08
FQEAMTHLQHKLICTRKPEEIREG [G23E]	2.16
FQEAMTHLQHKLICTRKPEEIRFG [G23F]	2.02
FQEAMTHLQHKLICTRKPEEIRHG [G23H]	2.61
FQEAMTHLQHKLICTRKPEEIRIG [G23I]	2.6
FQEAMTHLQHKLICTRKPEEIRKG [G23K]	3.19
FQEAMTHLQHKLICTRKPEEIRLG [G23L]	2.66
FQEAMTHLQHKLICTRKPEEIRMG [G23M]	2.6
FQEAMTHLQHKLICTRKPEEIRNG [G23N]	3.01
FQEAMTHLQHKLICTRKPEEIRPG [G23P]	2.87
FQEAMTHLQHKLICTRKPEEIRQG [G23Q]	2.34
FQEAMTHLQHKLICTRKPEEIRRG [G23R]	2.45
FQEAMTHLQHKLICTRKPEEIRSG [G23S]	2.71
FQEAMTHLQHKLICTRKPEEIRTG [G23T]	2.14
FQEAMTHLQHKLICTRKPEEIRVG [G23V]	2.15
FQEAMTHLQHKLICTRKPEEIRWG [G23W]	2.48

Variant	protein stability index
FQEAMTHLQHKLICTRKPEEIRYG [G23Y]	2.41
FQEAMTHLQHKLICTRKPEEIRGA [G24A]	2.26
FQEAMTHLQHKLICTRKPEEIRGC [G24C]	2.52
FQEAMTHLQHKLICTRKPEEIRGD [G24D]	2.96
FQEAMTHLQHKLICTRKPEEIRGE [G24E]	2.49
FQEAMTHLQHKLICTRKPEEIRGF [G24F]	2.3
FQEAMTHLQHKLICTRKPEEIRGH [G24H]	2.26
FQEAMTHLQHKLICTRKPEEIRGI [G24I]	1.91
FQEAMTHLQHKLICTRKPEEIRGK [G24K]	3.34
FQEAMTHLQHKLICTRKPEEIRGL [G24L]	2.45
FQEAMTHLQHKLICTRKPEEIRGM [G24M]	1.85
FQEAMTHLQHKLICTRKPEEIRGN [G24N]	2.51
FQEAMTHLQHKLICTRKPEEIRGP [G24P]	2.64
FQEAMTHLQHKLICTRKPEEIRGQ [G24Q]	2.91
FQEAMTHLQHKLICTRKPEEIRGR [G24R]	2.07
FQEAMTHLQHKLICTRKPEEIRGS [G24S]	2.9
FQEAMTHLQHKLICTRKPEEIRGT [G24T]	2.96
FQEAMTHLQHKLICTRKPEEIRGV [G24V]	3.09
FQEAMTHLQHKLICTRKPEEIRGW [G24W]	1.68
FQEAMTHLQHKLICTRKPEEIRGY [G24Y]	2.59

Variants of: B2
Assay: as above
Conditions: c terminus: a fixed tail appended

Variant	protein stability index
ASAYIRRCACAASSDESPGSKCSP [Y1A]	2.62
CSAYIRRCACAASSDESPGSKCSP [Y1C]	2.04
DSAYIRRCACAASSDESPGSKCSP [Y1D]	3.44
ESAYIRRCACAASSDESPGSKCSP [Y1E]	3.29
FSAYIRRCACAASSDESPGSKCSP [Y1F]	2.27
GSAYIRRCACAASSDESPGSKCSP [Y1G]	2.48
HSAYIRRCACAASSDESPGSKCSP [Y1H]	2.65
ISAYIRRCACAASSDESPGSKCSP [Y1I]	1.72
KSAYIRRCACAASSDESPGSKCSP [Y1K]	2.75
LSAYIRRCACAASSDESPGSKCSP [Y1L]	2.61
MSAYIRRCACAASSDESPGSKCSP [Y1M]	2.45
NSAYIRRCACAASSDESPGSKCSP [Y1N]	2.96
PSAYIRRCACAASSDESPGSKCSP [Y1P]	2.88
QSAYIRRCACAASSDESPGSKCSP [Y1Q]	2.56
RSAYIRRCACAASSDESPGSKCSP [Y1R]	2.64
SSAYIRRCACAASSDESPGSKCSP [Y1S]	2.54
TSAYIRRCACAASSDESPGSKCSP [Y1T]	2.52
VSAYIRRCACAASSDESPGSKCSP [Y1V]	2.17
WSAYIRRCACAASSDESPGSKCSP [Y1W]	2.45
YAAYIRRCACAASSDESPGSKCSP [S2A]	2.38
YCAYIRRCACAASSDESPGSKCSP [S2C]	2.06
YDAYIRRCACAASSDESPGSKCSP [S2D]	2.6
YEAYIRRCACAASSDESPGSKCSP [S2E]	2.7
YFAYIRRCACAASSDESPGSKCSP [S2F]	2.16
YGAYIRRCACAASSDESPGSKCSP [S2G]	2.37
YHAYIRRCACAASSDESPGSKCSP [S2H]	4.15
YIAYIRRCACAASSDESPGSKCSP [S2I]	1.58

Variant	protein stability index
YKAYIRRCACAASSDESPGSKCSP [S2K]	1.92
YLAYIRRCACAASSDESPGSKCSP [S2L]	2
YMAYIRRCACAASSDESPGSKCSP [S2M]	1.91
YNAYIRRCACAASSDESPGSKCSP [S2N]	2.35
YPAYIRRCACAASSDESPGSKCSP [S2P]	2.59
YQAYIRRCACAASSDESPGSKCSP [S2Q]	2.02
YRAYIRRCACAASSDESPGSKCSP [S2R]	1.82
YTAYIRRCACAASSDESPGSKCSP [S2T]	2.1
YVAYIRRCACAASSDESPGSKCSP [S2V]	2.52
YWAYIRRCACAASSDESPGSKCSP [S2W]	1.91
YYAYIRRCACAASSDESPGSKCSP [S2Y]	1.92
YSCYIRRCACAASSDESPGSKCSP [A3C]	2.02
YSDYIRRCACAASSDESPGSKCSP [A3D]	2.62
YSEYIRRCACAASSDESPGSKCSP [A3E]	1.92
YSFYIRRCACAASSDESPGSKCSP [A3F]	1.86
YSGYIRRCACAASSDESPGSKCSP [A3G]	2
YSHYIRRCACAASSDESPGSKCSP [A3H]	2.15
YSIYIRRCACAASSDESPGSKCSP [A3I]	1.51
YSKYIRRCACAASSDESPGSKCSP [A3K]	2.44
YSLYIRRCACAASSDESPGSKCSP [A3L]	2.18
YSMYIRRCACAASSDESPGSKCSP [A3M]	2.15
YSNYIRRCACAASSDESPGSKCSP [A3N]	1.54
YSPYIRRCACAASSDESPGSKCSP [A3P]	1.69
YSQYIRRCACAASSDESPGSKCSP [A3Q]	2.91
YSRYIRRCACAASSDESPGSKCSP [A3R]	1.89
YSSYIRRCACAASSDESPGSKCSP [A3S]	2.43
